Reference: article PMC11794430

Target: HA-tagged Mincle (macrophage-inducible C-type lectin, CLEC4E) (UniProt Q9ULY5)
Assay: MST

UniProt Q9ULY5, sequence (Q9ULY5 whole entry): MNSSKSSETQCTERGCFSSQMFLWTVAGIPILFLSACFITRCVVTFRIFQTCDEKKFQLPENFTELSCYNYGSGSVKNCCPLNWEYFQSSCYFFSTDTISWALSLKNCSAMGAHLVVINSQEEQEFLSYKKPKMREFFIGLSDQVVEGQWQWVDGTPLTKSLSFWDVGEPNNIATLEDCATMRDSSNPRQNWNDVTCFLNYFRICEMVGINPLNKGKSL

Kd [µM] | Substance
5.7 | Fucosylated haptoglobin purified from sepsis patients (from UniProt P00738 162-406; P00738 19-160) (natural protein)
22.9 | Haptoglobin purified from healthy controls (from UniProt P00738 162-406; P00738 19-160) (natural protein)
